In article doi:10.1101/830265, “Relationships between puroindoline-prolamin interactions and wheat grain hardness” (bioRxiv, 2019):

Legend:
[1] = biological target: T1, puroindoline A (Triticum aestivum, UniProt P33432 29-148); experiment: SPR; same sensorgrams as the kinetic fit (immobilised (PQQPY)8, PINA 2 to 20 uM flowed, 25°C, Hepes buffer pH 7.4); steady-state fit, 1:1 Langmuir model; details: both partners purified
T1 construct: puroindoline A (PINA) of Triticum aestivum, purified from grain of cv; about 13 kDa, five disulfide bonds; matured by cleavages at both N- and C-termini, with forms that differ at the C-terminus; The Pina allele of cv; also called PINA; source: purified from the hard wheat Triticum aestivum cultivar Recital
T1 sequence (looked up): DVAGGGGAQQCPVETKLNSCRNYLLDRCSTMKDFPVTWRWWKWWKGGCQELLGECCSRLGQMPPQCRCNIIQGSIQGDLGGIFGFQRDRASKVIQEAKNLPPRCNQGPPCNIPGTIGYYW

[2] = biological target: T1, puroindoline A; experiment: SPR; Biacore X100, CM5 chip; gliadin or (PQQPY)8 covalently immobilised, PINA flowed at 10 uL/min, 25°C, Hepes buffer pH 7.4 (10 mM Hepes, 150 mM NaCl, 3.4 mM EDTA, 0.005% P20); global kinetic fit, 1:1 Langmuir model, KD=kd/ka; details: both partners purified

B1: recombinant polypeptide (PQQPY)8 (peptide)
chain: PQQPYPQQPYPQQPYPQQPYPQQPYPQQPYPQQPYPQQPY
notes: eight repeats of the pentapeptide PQQPY, written out from the printed formula (PQQPY)8; mimics the consensus repeat domain of gliadins; measured mass 4924.5 Da (theoretical 4924.3 Da); Released from thioredoxin-DP-(PQQPY)8 by formic acid; the printed theoretical mass of 4924.3 Da fits the 40 residues of eight repeats with no further residue; also called (Pro-Gln-Gln-Pro-Tyr)8; repetitive domain …
Binder B1 has a Kd [1] of 7.22 µM and a Kd [2] of 0.29 µM.
